Assays:
Assay in all cases: cell-based or functional assay
[1] = biological target: bovine haemoglobin (bovine) (UniProt P01966)
[2] = biological target: native purified aspartic endoproteinase from cacao beans (TcAP2, 30.5 kDa polypeptide), size exclusion pool #57-64 (Theobroma cacao)
[3] = biological target: recombinant TcAP2 protein (aspartic endoproteinase from Theobroma cacao, secreted by Yarrowia lipolytica clone pCY330-33) (Theobroma cacao)

native purified aspartic endoproteinase from cacao beans (TcAP2, 30.5 kDa polypeptide), size exclusion pool #57-64 (Theobroma cacao), sequence (chain, as listed by the source limits assumed, form in doubt): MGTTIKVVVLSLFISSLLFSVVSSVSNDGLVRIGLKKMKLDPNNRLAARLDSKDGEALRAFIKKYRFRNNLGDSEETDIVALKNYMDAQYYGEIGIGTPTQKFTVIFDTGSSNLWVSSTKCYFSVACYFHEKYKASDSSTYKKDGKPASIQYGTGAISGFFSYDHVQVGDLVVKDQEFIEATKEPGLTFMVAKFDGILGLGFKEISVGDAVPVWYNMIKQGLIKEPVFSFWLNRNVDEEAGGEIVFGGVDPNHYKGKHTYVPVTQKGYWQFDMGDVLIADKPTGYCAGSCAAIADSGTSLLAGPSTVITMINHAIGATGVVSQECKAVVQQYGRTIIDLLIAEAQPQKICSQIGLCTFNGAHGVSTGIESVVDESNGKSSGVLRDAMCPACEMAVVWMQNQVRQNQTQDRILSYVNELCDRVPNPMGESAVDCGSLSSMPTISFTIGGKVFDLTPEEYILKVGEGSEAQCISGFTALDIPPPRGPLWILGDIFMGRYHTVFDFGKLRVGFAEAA
bovine haemoglobin (bovine), sequence (P01966 2-142, chain 1 of 2): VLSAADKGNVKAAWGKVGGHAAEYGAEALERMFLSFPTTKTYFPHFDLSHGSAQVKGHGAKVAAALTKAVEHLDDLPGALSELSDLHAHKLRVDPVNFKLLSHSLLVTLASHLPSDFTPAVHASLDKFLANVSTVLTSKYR
bovine haemoglobin (bovine), sequence (P02070 whole entry, chain 2 of 2, further chain): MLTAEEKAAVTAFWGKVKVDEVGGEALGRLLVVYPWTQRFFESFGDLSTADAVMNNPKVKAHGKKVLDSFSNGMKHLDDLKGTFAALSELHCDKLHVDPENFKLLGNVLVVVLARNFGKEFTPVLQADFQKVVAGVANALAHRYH

Row | Substance | hydrolysis of bovine haemoglobin, activity at pH 3 without inhibitor (taken as 100%) (pmoles L-leucine produced/min/mg protein) [1] | Remaining Activity % (hydrolysis of bovine hemoglobin, 0.002 mM Pepstatin A) [2] [%] | pepstatin insensitive activity (hydrolysis of bovine haemoglobin, 2 µM pepstatin), percent of uninhibited activity [3] [%]
1 | recombinant TcAP2 protein (aspartic endoproteinase from Theobroma cacao, secreted by Yarrowia lipolytica clone pCY330-33) (enzyme) | 28.8 |  | 
2 | Pepstatin A (peptide) |  | 0 | 6.65
